Results on 1 molecule are retold here after PMC11735773.

This series has as its target SARS-CoV-2 nucleoprotein (NP) (SARS-CoV-2, UniProt P0DTC9 1-419).

With GGGGGGGGGGGG (structured_RNA, phosphorothioate linkages) [TAMRA-G12(S)], the binding result is given as “binds”.
